Reference: article doi:10.1101/447979

Target: FLAG-tagged human importin-α7 (human) (UniProt O60684)
Assay: co-IP

nucleoprotein (NP) of 2009 pandemic H1N1 influenza A virus A/Hamburg/NY1580/09, parental (natural protein)
fold binding against importin-α1: 10 fold
